In patent US20260109761A1 (IP2IPO INNOVATIONS, published 2026) one finds Kd, koff and kon data, which are given here for 16 molecules.

The target of assay [1] is T1, huZIP12-ECD-GST (human, UniProt Q504Y0 24-202).
T1 construct: also called hZIP12-ECD-GST; human ZIP12-ECD-GST; not shown: glutathione S-transferase (GST) tag
The assay can be described thus: SPR single cycle kinetics (Biacore): mAb captured on protein A, huZIP12-ECD-GST injected at 3.12-800 nM. The protocol: (§1) Single Cycle Kinetics (SCK) involves first capturing the mAb onto the protein A sensor surface and then sequentially injecting a series of concentrations of huZIP12-ECD-GST over the surface starting at the lowest concentration and ending with the highest concentration. The final concentration is followed by a dissociation phase where buffer only is passed across the surface followed by regeneration, where the remaining bound huZIP12-ECD-GST is removed from the surface by injection of a 10 mM Glycine pH 1.5 and 50 mM NaOH solution. The SCK is repeated for each monoclonal antibody providing duplicate data and the kinetics of each interaction is evaluated by the Biacore software.
Referring to FIG. 6, there are shown the kinetic parameters obtained for all antibody variants when screened with the 3.12 nM to 800 nM huZIP12-ECD-GST. […] Affinity.
For orientation: SPR reads the build-up and loss of mass on a sensor chip optically.

Assay [2] deals with T1, huZIP12-ECD-GST. Put plainly: SPR single cycle kinetics (Biacore): mAb captured on protein A, huZIP12-ECD-GST injected at 2.34-600 nM, extended dissociation. The protocol:
as §1
A selection of the higher affinity antibody variants were re-tested at a lower concentration series with an extended dissociation time with the objective of obtaining a better assessment of the binding kinetics. Referring now to FIG. 7, there are shown the data for the monoclonal antibodies that were re-tested to optimise the binding kinetic data. Once again, three antibody variants, H3_W99H_L1, H3_W99HL2 and H3_W99H_VL-par, all appear to have a higher affinity than the parent antibody. The on-rate (ka), off-rate (kd) and overall affinity measurement (KD) are all improved compared to the 51B12 VH_VL_par parent antibody.

T1 sequence (Q504Y0 24-202): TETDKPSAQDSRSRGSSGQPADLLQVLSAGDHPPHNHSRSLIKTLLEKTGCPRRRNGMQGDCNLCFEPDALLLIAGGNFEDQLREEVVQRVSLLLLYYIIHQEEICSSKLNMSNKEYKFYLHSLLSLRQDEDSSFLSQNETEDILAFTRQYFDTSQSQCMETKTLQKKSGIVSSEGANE

B1: 51B12_VH_L1 (antibody, V domains shown)
VH: QVQLVESGGGVVQPGRSLRLSCAASGFTFSDYGMHWVRQAPGKGLEWVAYISSGGTTIYYADTVKGRFTISRDNSKNTLYLQMNSLRAEDTAVYYCARWTNLYAMDYWGQGTTVTVSS
VL: DIVLTQSPDSLAVSLGERATINCRASKSVSTQGYSYMHWYQQKPGQPPKFLIYLASNLESGVPDRFSGSGSGTDFTLTISSLQAEDVAVYYCQHSREVPYTFGGGTKVEIKR
notes: Fc null human IgG1 / human kappa
As usually defined, the Kd is the free concentration of one partner at which half of the binding sites on the other are occupied at equilibrium, for simple one-to-one binding. What is called koff is the first-order rate constant of dissociation. Broadly, the kon is a measure of how fast the partners come together. A lower kon goes with slower complex formation. In the assay with huZIP12-ECD-GST [1], B1 registered a Kd of 0.963 nM, a koff of 2.83e-05 s⁻¹ and a kon of 29300 M⁻¹ s⁻¹.

B2: H2_G66Q_L1 (antibody, V domains shown)
VH: QVQLVESGGGVVQPGRSLRLSCAASGFTFSDYGMHWVRQAPGKGLEWVAYISSGGTTIYYADTVKQRFTISRDNSKNTLYLQMNSLRAEDTAVYYCARWTNLYAMDYWGQGTTVTVSS
VL: DIVLTQSPDSLAVSLGERATINCRASKSVSTQGYSYMHWYQQKPGQPPKFLIYLASNLESGVPDRFSGSGSGTDFTLTISSLQAEDVAVYYCQHSREVPYTFGGGTKVEIKR
notes: as for B1
B2: in the assay with huZIP12-ECD-GST [1], the Kd was 0.968 nM, the koff stood at 3.34e-05 s⁻¹ and the kon was determined as 34600 M⁻¹ s⁻¹.

B3: H2_K65P_VL-par (antibody, V domains shown)
VH: QVQLVESGGGVVQPGRSLRLSCAASGFTFSDYGMHWVRQAPGKGLEWVAYISSGGTTIYYADTVPGRFTISRDNSKNTLYLQMNSLRAEDTAVYYCARWTNLYAMDYWGQGTTVTVSS
VL: DIVLTQSPDSLAVSLGERATINCRASKSVSTSGYSYMHWYQQKPGQPPKFLIYLASNLESGVPDRFSGSGSGTDFTLTISSLQAEDVAVYYCQHSREVPYTFGGGTKVEIKR
notes: as for B1
Consider B3, for which, in the assay with huZIP12-ECD-GST [1], the affinity, expressed as Kd, was 1.08 nM; the koff is 2.92e-05 s⁻¹; the kon is 27000 M⁻¹ s⁻¹.

B4: H2_T56H_L2 (antibody, V domains shown)
VH: QVQLVESGGGVVQPGRSLRLSCAASGFTFSDYGMHWVRQAPGKGLEWVAYISSGGHTIYYADTVKGRFTISRDNSKNTLYLQMNSLRAEDTAVYYCARWTNLYAMDYWGQGTTVTVSS
VL: DIVLTQSPDSLAVSLGERATINCRASKSVSTSGYSYMHWYQQKPGQPPKFLIYLASNKESGVPDRFSGSGSGTDFTLTISSLQAEDVAVYYCQHSREVPYTFGGGTKVEIKR
notes: as for B1
As to B4, in the assay with huZIP12-ECD-GST [1], binding was characterised by a dissociation constant (Kd) of 1.61 nM, the koff was 3.74e-05 s⁻¹ and the kon was 23200 M⁻¹ s⁻¹.

B5: H2_T63Y_L2 (antibody, V domains shown)
VH: QVQLVESGGGVVQPGRSLRLSCAASGFTFSDYGMHWVRQAPGKGLEWVAYISSGGTTIYYADYVKGRFTISRDNSKNTLYLQMNSLRAEDTAVYYCARWTNLYAMDYWGQGTTVTVSS
VL: DIVLTQSPDSLAVSLGERATINCRASKSVSTSGYSYMHWYQQKPGQPPKFLIYLASNKESGVPDRFSGSGSGTDFTLTISSLQAEDVAVYYCQHSREVPYTFGGGTKVEIKR
notes: as for B1
In the assay with huZIP12-ECD-GST [1], B5 had a Kd of 1.15 nM, a koff of 3.06e-05 s⁻¹ and a kon of 26700 M⁻¹ s⁻¹.

B6: H2_K65P_L2 (antibody, V domains shown)
VH: QVQLVESGGGVVQPGRSLRLSCAASGFTFSDYGMHWVRQAPGKGLEWVAYISSGGTTIYYADTVPGRFTISRDNSKNTLYLQMNSLRAEDTAVYYCARWTNLYAMDYWGQGTTVTVSS
VL: DIVLTQSPDSLAVSLGERATINCRASKSVSTSGYSYMHWYQQKPGQPPKFLIYLASNKESGVPDRFSGSGSGTDFTLTISSLQAEDVAVYYCQHSREVPYTFGGGTKVEIKR
notes: as for B1
In the assay with huZIP12-ECD-GST [1], B6 had a Kd of 1.13 nM, a koff of 2.62e-05 s⁻¹ and a kon of 23200 M⁻¹ s⁻¹.

B7: H2_T57H_L2 (antibody, V domains shown)
VH: QVQLVESGGGVVQPGRSLRLSCAASGFTFSDYGMHWVRQAPGKGLEWVAYISSGGTHIYYADTVKGRFTISRDNSKNTLYLQMNSLRAEDTAVYYCARWTNLYAMDYWGQGTTVTVSS
VL: DIVLTQSPDSLAVSLGERATINCRASKSVSTSGYSYMHWYQQKPGQPPKFLIYLASNKESGVPDRFSGSGSGTDFTLTISSLQAEDVAVYYCQHSREVPYTFGGGTKVEIKR
notes: as for B1
As for B7, in the assay with huZIP12-ECD-GST [1], the Kd was determined as 0.98 nM, the koff was found to be 3.78e-05 s⁻¹ and the kon was determined as 38600 M⁻¹ s⁻¹.

B8: H3_M105P_VL-par (antibody, V domains shown)
VH: QVQLVESGGGVVQPGRSLRLSCAASGFTFSDYGMHWVRQAPGKGLEWVAYISSGGTTIYYADTVKGRFTISRDNSKNTLYLQMNSLRAEDTAVYYCARWTNLYAPDYWGQGTTVTVSS
VL: DIVLTQSPDSLAVSLGERATINCRASKSVSTSGYSYMHWYQQKPGQPPKFLIYLASNLESGVPDRFSGSGSGTDFTLTISSLQAEDVAVYYCQHSREVPYTFGGGTKVEIKR
notes: as for B1
In the assay with huZIP12-ECD-GST [1], B8 gave a Kd of 1.63 nM, a koff of 4.03e-05 s⁻¹ and a kon of 24700 M⁻¹ s⁻¹.

B9: H2_G66Q_VL-par (antibody, V domains shown)
VH: QVQLVESGGGVVQPGRSLRLSCAASGFTFSDYGMHWVRQAPGKGLEWVAYISSGGTTIYYADTVKQRFTISRDNSKNTLYLQMNSLRAEDTAVYYCARWTNLYAMDYWGQGTTVTVSS
VL: DIVLTQSPDSLAVSLGERATINCRASKSVSTSGYSYMHWYQQKPGQPPKFLIYLASNLESGVPDRFSGSGSGTDFTLTISSLQAEDVAVYYCQHSREVPYTFGGGTKVEIKR
notes: as for B1
In the assay with huZIP12-ECD-GST [2], B9 gave a Kd of 0.83 nM, a koff of 2.78e-05 s⁻¹ and a kon of 33600 M⁻¹ s⁻¹. Also, in the assay with huZIP12-ECD-GST [1], the Kd turned out to be 1.08 nM, the koff is 3.72e-05 s⁻¹ and the kon is 34400 M⁻¹ s⁻¹.

B10: H3_M105P_L1 (antibody, V domains shown)
VH: QVQLVESGGGVVQPGRSLRLSCAASGFTFSDYGMHWVRQAPGKGLEWVAYISSGGTTIYYADTVKGRFTISRDNSKNTLYLQMNSLRAEDTAVYYCARWTNLYAPDYWGQGTTVTVSS
VL: DIVLTQSPDSLAVSLGERATINCRASKSVSTQGYSYMHWYQQKPGQPPKFLIYLASNLESGVPDRFSGSGSGTDFTLTISSLQAEDVAVYYCQHSREVPYTFGGGTKVEIKR
notes: as for B1
In the assay with huZIP12-ECD-GST [1], B10 displayed a Kd of 1.55 nM, a koff of 4.35e-05 s⁻¹ and a kon of 28100 M⁻¹ s⁻¹.

B11: H2_G66Q_L2 (antibody, V domains shown)
VH: QVQLVESGGGVVQPGRSLRLSCAASGFTFSDYGMHWVRQAPGKGLEWVAYISSGGTTIYYADTVKQRFTISRDNSKNTLYLQMNSLRAEDTAVYYCARWTNLYAMDYWGQGTTVTVSS
VL: DIVLTQSPDSLAVSLGERATINCRASKSVSTSGYSYMHWYQQKPGQPPKFLIYLASNKESGVPDRFSGSGSGTDFTLTISSLQAEDVAVYYCQHSREVPYTFGGGTKVEIKR
notes: as for B1
With B11, in the assay with huZIP12-ECD-GST [2], binding was characterised by a dissociation constant (Kd) of 1.2 nM, the koff is 3.59e-05 s⁻¹ and the on-rate constant (kon) worked out at 30000 M⁻¹ s⁻¹. In the assay with huZIP12-ECD-GST [1], this molecule gave a Kd of 1.17 nM, a koff of 3.42e-05 s⁻¹ and a kon of 29100 M⁻¹ s⁻¹.

B12: H2_K65P_L1 (antibody, V domains shown)
VH: QVQLVESGGGVVQPGRSLRLSCAASGFTFSDYGMHWVRQAPGKGLEWVAYISSGGTTIYYADTVPGRFTISRDNSKNTLYLQMNSLRAEDTAVYYCARWTNLYAMDYWGQGTTVTVSS
VL: DIVLTQSPDSLAVSLGERATINCRASKSVSTQGYSYMHWYQQKPGQPPKFLIYLASNLESGVPDRFSGSGSGTDFTLTISSLQAEDVAVYYCQHSREVPYTFGGGTKVEIKR
notes: as for B1
As to B12, in the assay with huZIP12-ECD-GST [1], the Kd stood at 1.07 nM, the koff was 3.08e-05 s⁻¹ and the kon was found to be 28800 M⁻¹ s⁻¹.

B13: H3_M105P_L2 (antibody, V domains shown)
VH: QVQLVESGGGVVQPGRSLRLSCAASGFTFSDYGMHWVRQAPGKGLEWVAYISSGGTTIYYADTVKGRFTISRDNSKNTLYLQMNSLRAEDTAVYYCARWTNLYAPDYWGQGTTVTVSS
VL: DIVLTQSPDSLAVSLGERATINCRASKSVSTSGYSYMHWYQQKPGQPPKFLIYLASNKESGVPDRFSGSGSGTDFTLTISSLQAEDVAVYYCQHSREVPYTFGGGTKVEIKR
notes: as for B1
Turning to B13, in the assay with huZIP12-ECD-GST [1], the Kd came out at 1.93 nM, the koff turned out to be 4.14e-05 s⁻¹ and the kon was determined as 21500 M⁻¹ s⁻¹.

B14: H2_Y60K_L2 (antibody, V domains shown)
VH: QVQLVESGGGVVQPGRSLRLSCAASGFTFSDYGMHWVRQAPGKGLEWVAYISSGGTTIYKADTVKGRFTISRDNSKNTLYLQMNSLRAEDTAVYYCARWTNLYAMDYWGQGTTVTVSS
VL: DIVLTQSPDSLAVSLGERATINCRASKSVSTSGYSYMHWYQQKPGQPPKFLIYLASNKESGVPDRFSGSGSGTDFTLTISSLQAEDVAVYYCQHSREVPYTFGGGTKVEIKR
notes: as for B1
In the assay with huZIP12-ECD-GST [1], B14 had a Kd of 1.11 nM, a koff of 4.04e-05 s⁻¹ and a kon of 36500 M⁻¹ s⁻¹.

B15: 51B12_VH_L2 (antibody, V domains shown)
VH: QVQLVESGGGVVQPGRSLRLSCAASGFTFSDYGMHWVRQAPGKGLEWVAYISSGGTTIYYADTVKGRFTISRDNSKNTLYLQMNSLRAEDTAVYYCARWTNLYAMDYWGQGTTVTVSS
VL: DIVLTQSPDSLAVSLGERATINCRASKSVSTSGYSYMHWYQQKPGQPPKFLIYLASNKESGVPDRFSGSGSGTDFTLTISSLQAEDVAVYYCQHSREVPYTFGGGTKVEIKR
notes: as for B1
As to B15, in the assay with huZIP12-ECD-GST [1], the Kd is 1.12 nM, the koff came to 2.86e-05 s⁻¹ and the kon amounted to 25600 M⁻¹ s⁻¹.

B16: H2_T56H_L1 (antibody, V domains shown)
VH: QVQLVESGGGVVQPGRSLRLSCAASGFTFSDYGMHWVRQAPGKGLEWVAYISSGGHTIYYADTVKGRFTISRDNSKNTLYLQMNSLRAEDTAVYYCARWTNLYAMDYWGQGTTVTVSS
VL: DIVLTQSPDSLAVSLGERATINCRASKSVSTQGYSYMHWYQQKPGQPPKFLIYLASNLESGVPDRFSGSGSGTDFTLTISSLQAEDVAVYYCQHSREVPYTFGGGTKVEIKR
notes: as for B1
In the case of B16, in the assay with huZIP12-ECD-GST [1], binding was put at a Kd of 1.3 nM, the koff amounted to 3.45e-05 s⁻¹ and the kon was 26400 M⁻¹ s⁻¹.
